The target of the assay is porcine pancreatic elastase (porcine) (UniProt P00772).
UniProt P00772, sequence (P00772 27-266): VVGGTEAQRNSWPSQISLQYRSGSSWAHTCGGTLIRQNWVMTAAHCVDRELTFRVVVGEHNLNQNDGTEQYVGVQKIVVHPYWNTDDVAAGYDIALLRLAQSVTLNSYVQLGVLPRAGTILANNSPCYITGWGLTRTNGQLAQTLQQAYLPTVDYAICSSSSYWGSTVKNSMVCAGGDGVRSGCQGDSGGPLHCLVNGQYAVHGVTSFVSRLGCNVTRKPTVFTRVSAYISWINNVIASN

Substance “Alpha-1-antitrypsin (standard AAT, purified from human plasma) (from UniProt P01009 25-418) (natural protein)” registered an elastase inhibition % (hydrolysis of N-succinyl-tri-l-alanine-4-nitroanilide read at 410 nm), AAT from 7.5 to 120 µg/mL of 97%.
